Experimental data reported in article PMC12115182, “Inhibition of RPA32 and Cytotoxic Effects of the Carnivorous Plant Sarracenia purpurea Root Extract in Non-Small-Cell Lung Cancer Cells”.

Biological target: huRPA32 (human RPA32) (human, UniProt P15927 1-270)
Experiment: EMSA; [Protein]50 by linear interpolation; DNA 30 fmol/uL; no extract; 40 mM Tris-HCl pH 7.5, 50 mM NaCl, 37 C, 60 min; 8% native PAGE in TBE, 100 V 1 h
Settings: protein: recombinant; single-stranded

Sequence of huRPA32 (human RPA32) (P15927 whole entry): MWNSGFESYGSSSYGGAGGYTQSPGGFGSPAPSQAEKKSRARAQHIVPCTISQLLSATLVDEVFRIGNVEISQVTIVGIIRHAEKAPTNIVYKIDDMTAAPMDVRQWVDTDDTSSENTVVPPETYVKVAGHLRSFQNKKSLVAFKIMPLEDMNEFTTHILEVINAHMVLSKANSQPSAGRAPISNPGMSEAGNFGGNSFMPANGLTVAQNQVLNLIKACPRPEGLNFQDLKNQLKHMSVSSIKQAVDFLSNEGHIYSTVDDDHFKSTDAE

B1: dT25 (ssDNA)
DNA: TTTTTTTTTTTTTTTTTTTTTTTTT
- apparent K (half saturation): 5.7 ± 0.6 µM
